Tests used:
[1] = molecular target: ErbB1 receptor (EGF receptor) on HeLa 229 cells (UniProt P00533); assay: cell-based or functional assay
ErbB1 receptor = ErbB1 receptor (UniProt P00533); assay: cell-based or functional assay

Sequence of PEGylated betacellulin produced using the mPEG-ButyrALD-20K reagent (P35070 other isoform, or with tags, fused parts or gaps limits assumed): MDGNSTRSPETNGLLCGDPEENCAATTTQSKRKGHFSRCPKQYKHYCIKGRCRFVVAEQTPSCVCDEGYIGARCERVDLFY
Sequence of PEGylated betacellulin produced using the mPEG-SMB-20K reagent (P35070 other isoform, or with tags, fused parts or gaps limits assumed): as above
Sequence of UniProt P35070 (P35070 other isoform, or with tags, fused parts or gaps limits assumed): as above

| Substance | activity % (phospho-EGFR pY1068 ELISA, HeLa cells; SEC column S70; 40 nM submitted to assay) [1] [%] | activity % (phospho-EGFR pY1068 ELISA, HeLa cells; SEC column S200; 40 nM submitted to assay) [1] [%] | activity in phospho-EGFR pY1068 ELISA on HeLa 229 cells, against unreacted betacellulin (ErbB1 receptor; scale: % reduction against unreacted betacellulin) | ELISA activity is equivalent to [BTC] nM (phospho-EGFR pY1068 ELISA, HeLa cells; SEC column S200; 40 nM submitted to assay) [1] [nM] | activity in phospho-EGFR pY1068 ELISA on HeLa 229 cells, against unreacted betacellulin (fold lower than unreacted betacellulin) (ErbB1 receptor) | ELISA activity is equivalent to [BTC] nM (phospho-EGFR pY1068 ELISA, HeLa cells; SEC column S70; 40 nM submitted to assay) [1] [nM] |
| --- | --- | --- | --- | --- | --- | --- |
| PEGylated betacellulin produced using the mPEG-ButyrALD-20K reagent (from UniProt P35070 32-111) (ligand) | 58 | 55 | < 50 | – | – | – |
| PEGylated betacellulin produced using the mPEG-SMB-20K reagent (from UniProt P35070 32-111) (ligand) | 26 | 34 | – | 14 | 3 | – |
| Unreacted (row label under 'PEGylation chemistry'; taken as the unreacted betacellulin fraction from the S70 size exclusion column) (from UniProt P35070 32-111) (ligand) | 0 | – | – | – | – | 0 |
